Data: patent US20220033450A1, “VIRALLY EXPRESSED INHIBITORS OF PDZ DOMAINS, SUCH AS PICK1 AND USES THEREOF” (University of Copenhagen, priority 2018, published 2022)

Biological target: Protein Interacting with C Kinase-1 (PICK1), Q9EP80
Test: FP competition, PICK1 0.15 µM, tracer PEG4 linked dimeric C5 20 nM

Chain of Protein Interacting with C Kinase-1 (PICK1), Q9EP80 (Q9EP80 whole entry): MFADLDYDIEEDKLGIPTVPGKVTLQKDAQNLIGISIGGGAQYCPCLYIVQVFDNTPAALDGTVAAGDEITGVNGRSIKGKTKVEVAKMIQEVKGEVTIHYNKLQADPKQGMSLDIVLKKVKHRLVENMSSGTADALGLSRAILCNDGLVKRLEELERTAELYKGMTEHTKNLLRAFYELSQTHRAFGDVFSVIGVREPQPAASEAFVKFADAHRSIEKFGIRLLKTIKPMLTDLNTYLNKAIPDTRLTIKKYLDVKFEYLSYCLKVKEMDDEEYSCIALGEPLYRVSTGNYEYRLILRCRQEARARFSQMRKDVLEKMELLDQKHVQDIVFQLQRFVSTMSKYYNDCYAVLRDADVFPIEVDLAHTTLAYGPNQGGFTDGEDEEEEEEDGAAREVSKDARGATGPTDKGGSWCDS

Binder: GEELLEDIRKFNEMRKNMDQLKEKINSVLSIRQGGGGSHWLKV (designed binder, modifications not checked) [SSO10a-GS4-HWLKV]
- fold increase in affinity over DATC5: 16 fold
